According to the supplement of paper PMC10065799, “High-throughput profiling of sequence recognition by tyrosine kinases and SH2 domains using bacterial peptide display” (eLife, 2023):
One block for each sequence: values may come before it.

Columns and labels:
[1] = system: AncSZ; experiment: phosphorylation enrichment, bacterial display (enrichment ratio); higher = better substrate or ligand; peptides without Tyr show the background
[2] = molecular target: EPHB1 (UniProt P54762); experiment: as above
[3] = molecular target: EPHB2 (UniProt P29323); experiment: as above
EPHB2, sequence (P29323 whole entry, looked up): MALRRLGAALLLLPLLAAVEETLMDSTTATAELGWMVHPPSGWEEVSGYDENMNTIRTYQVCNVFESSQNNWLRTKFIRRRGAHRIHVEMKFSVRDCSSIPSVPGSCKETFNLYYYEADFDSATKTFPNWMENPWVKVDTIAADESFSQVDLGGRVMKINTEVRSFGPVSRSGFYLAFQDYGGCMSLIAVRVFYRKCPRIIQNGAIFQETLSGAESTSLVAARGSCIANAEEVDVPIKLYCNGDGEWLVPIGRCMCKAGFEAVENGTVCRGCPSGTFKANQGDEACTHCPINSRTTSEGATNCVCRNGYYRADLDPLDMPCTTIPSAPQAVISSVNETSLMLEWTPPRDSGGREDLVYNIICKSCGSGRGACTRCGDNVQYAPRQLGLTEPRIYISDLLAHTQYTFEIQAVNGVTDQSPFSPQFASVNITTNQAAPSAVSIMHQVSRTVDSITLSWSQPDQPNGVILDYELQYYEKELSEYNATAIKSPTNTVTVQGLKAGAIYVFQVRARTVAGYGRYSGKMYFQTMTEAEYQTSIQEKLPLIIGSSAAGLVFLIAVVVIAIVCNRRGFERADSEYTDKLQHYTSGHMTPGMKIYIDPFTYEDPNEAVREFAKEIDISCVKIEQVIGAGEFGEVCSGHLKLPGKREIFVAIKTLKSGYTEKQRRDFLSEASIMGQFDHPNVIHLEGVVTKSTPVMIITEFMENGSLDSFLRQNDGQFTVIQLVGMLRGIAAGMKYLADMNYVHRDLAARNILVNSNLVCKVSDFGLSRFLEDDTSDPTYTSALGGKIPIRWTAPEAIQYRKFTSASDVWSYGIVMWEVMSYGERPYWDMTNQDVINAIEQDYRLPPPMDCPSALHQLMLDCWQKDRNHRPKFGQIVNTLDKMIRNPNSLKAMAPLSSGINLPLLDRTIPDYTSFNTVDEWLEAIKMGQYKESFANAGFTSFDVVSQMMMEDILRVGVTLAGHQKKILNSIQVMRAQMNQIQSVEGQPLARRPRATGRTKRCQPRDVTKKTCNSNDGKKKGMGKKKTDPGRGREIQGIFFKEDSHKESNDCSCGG

[4] = molecular target: FGFR1 (UniProt P11362); experiment: as above
[5] = molecular target: FGFR3 (UniProt P22607); experiment: as above
FGFR3, sequence (P22607 whole entry, looked up): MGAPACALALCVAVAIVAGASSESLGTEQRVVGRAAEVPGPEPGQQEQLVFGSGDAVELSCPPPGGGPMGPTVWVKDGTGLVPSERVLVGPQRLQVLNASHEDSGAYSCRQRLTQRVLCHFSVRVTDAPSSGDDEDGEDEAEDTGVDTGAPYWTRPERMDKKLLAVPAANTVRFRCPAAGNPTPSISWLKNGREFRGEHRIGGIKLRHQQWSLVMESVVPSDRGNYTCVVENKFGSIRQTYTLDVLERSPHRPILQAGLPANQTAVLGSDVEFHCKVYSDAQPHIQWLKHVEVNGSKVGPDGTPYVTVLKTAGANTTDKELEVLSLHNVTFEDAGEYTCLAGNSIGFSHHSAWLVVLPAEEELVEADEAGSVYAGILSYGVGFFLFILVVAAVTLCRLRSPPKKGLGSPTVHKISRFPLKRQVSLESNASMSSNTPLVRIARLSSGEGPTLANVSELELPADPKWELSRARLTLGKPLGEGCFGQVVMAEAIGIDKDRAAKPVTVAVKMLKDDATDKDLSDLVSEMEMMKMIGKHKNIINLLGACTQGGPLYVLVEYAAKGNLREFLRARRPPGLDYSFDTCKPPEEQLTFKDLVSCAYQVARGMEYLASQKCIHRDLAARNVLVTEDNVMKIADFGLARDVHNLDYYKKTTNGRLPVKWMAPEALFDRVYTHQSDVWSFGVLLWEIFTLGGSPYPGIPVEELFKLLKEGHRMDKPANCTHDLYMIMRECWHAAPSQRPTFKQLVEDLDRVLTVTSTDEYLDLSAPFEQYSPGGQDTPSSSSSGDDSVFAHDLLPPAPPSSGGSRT

[6] = system: Fer (mouse); experiment: as above
[7] = molecular target: Fes (UniProt P07332); experiment: as above
[8] = molecular target: Fyn (UniProt P06241); experiment: as above
Fyn, sequence (P06241 whole entry, looked up): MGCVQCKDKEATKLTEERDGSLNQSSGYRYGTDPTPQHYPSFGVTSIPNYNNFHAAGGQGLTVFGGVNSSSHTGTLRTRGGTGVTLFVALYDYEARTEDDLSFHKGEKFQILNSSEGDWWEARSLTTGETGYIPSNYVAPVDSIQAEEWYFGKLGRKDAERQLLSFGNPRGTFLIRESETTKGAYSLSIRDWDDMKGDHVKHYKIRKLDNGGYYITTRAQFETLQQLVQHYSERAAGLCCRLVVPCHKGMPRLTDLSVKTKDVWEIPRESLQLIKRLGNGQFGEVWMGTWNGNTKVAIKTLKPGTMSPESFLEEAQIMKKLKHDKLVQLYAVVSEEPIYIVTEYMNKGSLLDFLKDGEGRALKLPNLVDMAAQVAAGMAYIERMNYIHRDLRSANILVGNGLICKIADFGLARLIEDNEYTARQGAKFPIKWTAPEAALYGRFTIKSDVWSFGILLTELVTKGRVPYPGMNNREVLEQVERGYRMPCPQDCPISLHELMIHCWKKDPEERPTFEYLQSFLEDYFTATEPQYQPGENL

[9] = molecular target: Hck (UniProt P08631); experiment: as above
Hck, sequence (P08631 whole entry, looked up): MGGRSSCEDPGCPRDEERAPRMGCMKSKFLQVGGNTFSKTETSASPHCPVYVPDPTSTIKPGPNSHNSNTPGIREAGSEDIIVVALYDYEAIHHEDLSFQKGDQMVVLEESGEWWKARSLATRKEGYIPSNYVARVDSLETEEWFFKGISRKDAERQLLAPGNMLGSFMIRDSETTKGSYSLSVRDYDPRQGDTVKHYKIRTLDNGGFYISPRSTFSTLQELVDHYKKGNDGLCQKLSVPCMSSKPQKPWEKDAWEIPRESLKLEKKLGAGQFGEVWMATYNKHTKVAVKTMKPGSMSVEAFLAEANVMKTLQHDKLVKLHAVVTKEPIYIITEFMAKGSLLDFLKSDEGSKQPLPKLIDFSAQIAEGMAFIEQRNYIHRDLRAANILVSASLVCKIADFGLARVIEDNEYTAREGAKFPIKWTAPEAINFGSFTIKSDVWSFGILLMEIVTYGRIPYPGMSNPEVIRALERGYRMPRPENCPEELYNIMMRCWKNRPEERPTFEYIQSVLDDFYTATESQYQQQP

[10] = molecular target: Jak2 (UniProt O60674); experiment: as above
Jak2, sequence (O60674 whole entry, looked up): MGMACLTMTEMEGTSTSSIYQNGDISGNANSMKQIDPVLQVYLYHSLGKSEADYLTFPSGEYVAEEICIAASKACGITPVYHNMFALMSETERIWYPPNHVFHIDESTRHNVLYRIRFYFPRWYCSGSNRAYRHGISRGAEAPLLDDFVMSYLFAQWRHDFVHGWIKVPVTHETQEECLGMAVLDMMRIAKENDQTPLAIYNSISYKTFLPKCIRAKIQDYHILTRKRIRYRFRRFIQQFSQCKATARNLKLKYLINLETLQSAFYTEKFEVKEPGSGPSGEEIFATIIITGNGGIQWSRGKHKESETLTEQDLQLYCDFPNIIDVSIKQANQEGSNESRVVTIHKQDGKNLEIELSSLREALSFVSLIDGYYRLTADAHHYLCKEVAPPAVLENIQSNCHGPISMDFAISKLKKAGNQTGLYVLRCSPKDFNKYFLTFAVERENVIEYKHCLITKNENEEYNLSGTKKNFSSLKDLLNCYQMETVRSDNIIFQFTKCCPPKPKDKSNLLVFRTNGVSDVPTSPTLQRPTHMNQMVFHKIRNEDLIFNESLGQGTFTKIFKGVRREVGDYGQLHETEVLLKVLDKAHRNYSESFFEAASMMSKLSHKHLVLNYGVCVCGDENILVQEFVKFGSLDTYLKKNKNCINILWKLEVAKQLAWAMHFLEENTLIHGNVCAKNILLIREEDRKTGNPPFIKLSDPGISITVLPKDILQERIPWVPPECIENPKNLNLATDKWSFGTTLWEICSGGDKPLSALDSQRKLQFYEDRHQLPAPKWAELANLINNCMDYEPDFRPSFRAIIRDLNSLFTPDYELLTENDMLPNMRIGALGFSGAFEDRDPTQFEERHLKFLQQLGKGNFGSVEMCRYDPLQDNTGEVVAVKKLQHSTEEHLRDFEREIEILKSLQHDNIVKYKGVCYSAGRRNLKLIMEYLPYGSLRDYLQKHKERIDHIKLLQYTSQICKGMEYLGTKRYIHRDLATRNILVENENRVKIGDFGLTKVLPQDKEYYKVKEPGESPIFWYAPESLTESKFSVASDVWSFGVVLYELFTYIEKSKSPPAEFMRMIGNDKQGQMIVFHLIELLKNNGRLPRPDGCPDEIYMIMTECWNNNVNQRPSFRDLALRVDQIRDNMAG

[11] = molecular target: MERTK (UniProt Q12866); experiment: as above
MERTK, sequence (Q12866 whole entry, looked up): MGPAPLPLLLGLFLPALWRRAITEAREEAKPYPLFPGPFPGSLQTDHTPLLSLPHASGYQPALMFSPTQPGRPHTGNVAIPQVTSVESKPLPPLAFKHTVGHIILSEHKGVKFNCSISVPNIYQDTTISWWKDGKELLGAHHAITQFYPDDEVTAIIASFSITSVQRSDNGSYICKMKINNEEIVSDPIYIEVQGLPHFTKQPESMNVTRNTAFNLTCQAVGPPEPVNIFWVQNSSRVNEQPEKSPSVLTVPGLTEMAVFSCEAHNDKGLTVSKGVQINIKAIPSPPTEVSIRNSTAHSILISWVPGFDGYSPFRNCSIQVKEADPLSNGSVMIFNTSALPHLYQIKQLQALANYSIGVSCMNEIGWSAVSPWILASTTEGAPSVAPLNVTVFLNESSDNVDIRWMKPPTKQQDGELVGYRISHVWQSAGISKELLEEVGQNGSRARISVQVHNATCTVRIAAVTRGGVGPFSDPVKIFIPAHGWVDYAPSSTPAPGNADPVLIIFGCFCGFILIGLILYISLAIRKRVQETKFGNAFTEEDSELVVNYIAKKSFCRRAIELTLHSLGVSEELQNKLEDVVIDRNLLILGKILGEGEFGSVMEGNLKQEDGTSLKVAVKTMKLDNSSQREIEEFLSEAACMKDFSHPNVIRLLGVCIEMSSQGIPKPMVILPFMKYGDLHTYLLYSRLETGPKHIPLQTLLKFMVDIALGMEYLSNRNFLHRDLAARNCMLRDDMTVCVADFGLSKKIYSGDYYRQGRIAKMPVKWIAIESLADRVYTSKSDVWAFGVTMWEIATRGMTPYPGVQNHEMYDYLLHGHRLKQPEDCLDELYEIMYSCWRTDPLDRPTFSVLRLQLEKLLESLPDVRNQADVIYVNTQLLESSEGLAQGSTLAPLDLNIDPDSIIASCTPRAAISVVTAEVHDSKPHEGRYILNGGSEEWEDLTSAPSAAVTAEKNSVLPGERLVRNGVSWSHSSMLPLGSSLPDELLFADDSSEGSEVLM

[12] = system: c-Abl (mouse); experiment: as above
[13] = system: c-Src; experiment: as above
[14] = molecular target: Grb2 SH2 (UniProt P62993); experiment: SH2 binding enrichment of the phosphorylated peptide, bacterial display (enrichment ratio); higher = better substrate or ligand; peptides without Tyr show the background
[15] = molecular target: SHP2-C SH2; experiment: as above
[16] = molecular target: c-Src SH2; experiment: as above
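Wherever SH2 binding enrichment of the phosphorylated peptide, bacterial display is given: peptide library displayed on the E. coli surface as eCPX fusions, selected cells deep-sequenced, score is each peptide's frequency after selection divided by its frequency in the input.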
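Wherever phosphorylation enrichment, bacterial display is given: 11-residue human phosphosite peptides and single-mutation variants displayed on the E. coli surface, counted by deep sequencing, each peptide's frequency after selection divided by its frequency in the unselected input library; frequency after pTyr selection over input frequency; kinase dosed for 20-30% of maximal phosphorylation in three min.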

- SH2 binding enrichment [14]: 1.27
- SH2 binding enrichment [15]: 1.77
- SH2 binding enrichment [16]: 1.25
Sequence: KWHREYNFKFV [RICTOR_Y835_S837F_YF]
- phosphorylation enrichment [1]: 0.859
- phosphorylation enrichment [2]: 0.488
- phosphorylation enrichment [3]: 0.531
- phosphorylation enrichment [4]: 0.474
- phosphorylation enrichment [5]: 0.585
- phosphorylation enrichment [6]: 0.622
- phosphorylation enrichment [7]: 0.944
- phosphorylation enrichment [8]: 0.372
- phosphorylation enrichment [9]: 0.432
- phosphorylation enrichment [10]: 0.937
- phosphorylation enrichment [11]: 0.436
- phosphorylation enrichment [12]: 0.729
- phosphorylation enrichment [13]: 0.429

- SH2 binding enrichment [14]: 1.8
- SH2 binding enrichment [15]: 1.67
- SH2 binding enrichment [16]: 1.46
Sequence: RLLVVYPWPQR [HBG2_Y36_T39P]
- phosphorylation enrichment [1]: 0.97
- phosphorylation enrichment [2]: 0.443
- phosphorylation enrichment [3]: 0.606
- phosphorylation enrichment [4]: 0.527
- phosphorylation enrichment [5]: 0.703
- phosphorylation enrichment [6]: 0.512
- phosphorylation enrichment [7]: 1.7
- phosphorylation enrichment [8]: 0.489
- phosphorylation enrichment [9]: 0.518
- phosphorylation enrichment [10]: 0.617
- phosphorylation enrichment [11]: 0.917
- phosphorylation enrichment [12]: 0.494
- phosphorylation enrichment [13]: 0.456

- SH2 binding enrichment [14]: 0.82
- SH2 binding enrichment [15]: 0.791
- SH2 binding enrichment [16]: 0.476
Sequence: DVYVSYDCGKS [SORL1_Y139_Y141C]
- phosphorylation enrichment [1]: 1.6
- phosphorylation enrichment [2]: 1.47
- phosphorylation enrichment [3]: 1.93
- phosphorylation enrichment [4]: 1.79
- phosphorylation enrichment [5]: 1.81
- phosphorylation enrichment [6]: 0.985
- phosphorylation enrichment [7]: 1.1
- phosphorylation enrichment [8]: 6.11
- phosphorylation enrichment [9]: 3.12
- phosphorylation enrichment [10]: 0.895
- phosphorylation enrichment [11]: 1.04
- phosphorylation enrichment [12]: 0.862
- phosphorylation enrichment [13]: 3.94

- SH2 binding enrichment [14]: 0.787
- SH2 binding enrichment [15]: 0.667
- SH2 binding enrichment [16]: 0.613
Sequence: KVASVYEALGF [NT5C_Y65_P68L]
- phosphorylation enrichment [1]: 0.88
- phosphorylation enrichment [2]: 8.22
- phosphorylation enrichment [3]: 4.25
- phosphorylation enrichment [4]: 0.607
- phosphorylation enrichment [5]: 0.574
- phosphorylation enrichment [6]: 4.62
- phosphorylation enrichment [7]: 0.989
- phosphorylation enrichment [8]: 10.3
- phosphorylation enrichment [9]: 8.84
- phosphorylation enrichment [10]: 0.595
- phosphorylation enrichment [11]: 7.59
- phosphorylation enrichment [12]: 0.697
- phosphorylation enrichment [13]: 6.25

- SH2 binding enrichment [14]: 0.693
- SH2 binding enrichment [15]: 0.37
- SH2 binding enrichment [16]: 0.617
Sequence: LDFNEYFRNLN [HPRT1_Y198_D201N_YF]
- phosphorylation enrichment [1]: 2.42
- phosphorylation enrichment [2]: 0.988
- phosphorylation enrichment [3]: 1.13
- phosphorylation enrichment [4]: 1.2
- phosphorylation enrichment [5]: 1.6
- phosphorylation enrichment [6]: 1.35
- phosphorylation enrichment [7]: 2.65
- phosphorylation enrichment [8]: 1
- phosphorylation enrichment [9]: 0.979
- phosphorylation enrichment [10]: 3.21
- phosphorylation enrichment [11]: 1.02
- phosphorylation enrichment [12]: 1.24
- phosphorylation enrichment [13]: 0.585

- SH2 binding enrichment [14]: 0.878
- SH2 binding enrichment [15]: 0.565
- SH2 binding enrichment [16]: 0.435
Sequence: YHLGKYLQEVL [KLB_Y910_Y906H]
- phosphorylation enrichment [1]: 1.18
- phosphorylation enrichment [2]: 0.481
- phosphorylation enrichment [3]: 0.724
- phosphorylation enrichment [4]: 0.527
- phosphorylation enrichment [5]: 0.739
- phosphorylation enrichment [6]: 0.452
- phosphorylation enrichment [7]: 1.1
- phosphorylation enrichment [8]: 0.524
- phosphorylation enrichment [9]: 0.498
- phosphorylation enrichment [10]: 0.87
- phosphorylation enrichment [11]: 0.383
- phosphorylation enrichment [12]: 0.685
- phosphorylation enrichment [13]: 0.298

- SH2 binding enrichment [14]: 0.818
- SH2 binding enrichment [15]: 0.676
- SH2 binding enrichment [16]: 1.46
Sequence: GYSRHYEDGYP [CTNND1_Y217]
- phosphorylation enrichment [1]: 0.691
- phosphorylation enrichment [2]: 0.383
- phosphorylation enrichment [3]: 0.465
- phosphorylation enrichment [4]: 0.391
- phosphorylation enrichment [5]: 0.529
- phosphorylation enrichment [6]: 0.374
- phosphorylation enrichment [7]: 0.722
- phosphorylation enrichment [8]: 0.382
- phosphorylation enrichment [9]: 0.383
- phosphorylation enrichment [10]: 0.623
- phosphorylation enrichment [11]: 0.524
- phosphorylation enrichment [12]: 0.67
- phosphorylation enrichment [13]: 0.488

- SH2 binding enrichment [14]: 1.3
- SH2 binding enrichment [15]: 2.87
- SH2 binding enrichment [16]: 6.38
Sequence: CTAIHYNYMCN [TP53_Y234_T231A]
- phosphorylation enrichment [1]: 0.707
- phosphorylation enrichment [2]: 0.628
- phosphorylation enrichment [3]: 0.506
- phosphorylation enrichment [4]: 0.479
- phosphorylation enrichment [5]: 0.581
- phosphorylation enrichment [6]: 0.401
- phosphorylation enrichment [7]: 0.727
- phosphorylation enrichment [8]: 0.386
- phosphorylation enrichment [9]: 0.429
- phosphorylation enrichment [10]: 0.569
- phosphorylation enrichment [11]: 0.398
- phosphorylation enrichment [12]: 0.48
- phosphorylation enrichment [13]: 0.441

- SH2 binding enrichment [14]: 0.852
- SH2 binding enrichment [15]: 0.535
- SH2 binding enrichment [16]: 0.487
Sequence: SAGSSYSISGI [PAX5_Y179]
- phosphorylation enrichment [1]: 0.53
- phosphorylation enrichment [2]: 0.368
- phosphorylation enrichment [3]: 0.347
- phosphorylation enrichment [4]: 0.395
- phosphorylation enrichment [5]: 0.438
- phosphorylation enrichment [6]: 0.419
- phosphorylation enrichment [7]: 0.516
- phosphorylation enrichment [8]: 0.412
- phosphorylation enrichment [9]: 0.386
- phosphorylation enrichment [10]: 0.559
- phosphorylation enrichment [11]: 0.426
- phosphorylation enrichment [12]: 0.417
- phosphorylation enrichment [13]: 0.457
